Biological target: recombinant YBX1 with a C-terminal 6×His tag (UniProt P67809 1-324)
Assay: BLI

recombinant YBX1 with a C-terminal 6×His tag, sequence (P67809 whole entry): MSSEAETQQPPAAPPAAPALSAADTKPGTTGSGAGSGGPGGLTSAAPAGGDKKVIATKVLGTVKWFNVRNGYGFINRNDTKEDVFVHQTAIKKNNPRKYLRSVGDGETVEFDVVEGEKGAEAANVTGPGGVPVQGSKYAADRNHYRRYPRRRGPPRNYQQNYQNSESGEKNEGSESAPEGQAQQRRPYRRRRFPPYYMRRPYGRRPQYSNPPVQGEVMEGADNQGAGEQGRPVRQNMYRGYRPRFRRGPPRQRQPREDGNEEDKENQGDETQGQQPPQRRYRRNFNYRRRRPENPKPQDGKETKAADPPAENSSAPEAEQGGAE

B1: recombinant GSDME with a C-terminal 6×His tag (natural protein)
chain: MFAKATRNFLREVDADGDLIAVSNLNDSDKLQLLSLVTKKKRFWCWQRPKYQFLSLTLGDVLIEDQFPSPVVVESDFVKYEGKFANHVSGTLETALGKVKLNLGGSSRVESQSSFGTLRKQEVDLQQLIRDSAERTINLRNPVLQQVLEGRNEVLCVLTQKITTMQKCVISEHMQVEEKCGGIVGIQTKTVQVSATEDGNVTKDSNVVLEIPAATTIAYGVIELYVKLDGQFEFCLLRGKQGGFENKKRIDSVYLDPLVFREFAFIDMPDAAHGISSQDGPLSVLKQATLLLERNFHPFAELPEPQQTALSDIFQAVLFDDELLMVLEPVCDDLVSGLSPTVAVLGELKPRQQQDLVAFLQLVGCSLQGGCPGPEDAGSKQLFMTAYFLVSALAEMPDSAAALLGTCCKLQIIPTLCHLLRALSDDGVSDLEDPTLTPLKDTERFGIVQRLFASADISLERLKSSVKAVILKDSKVFPLLLCITLNGLCALGREHS
Kd: 0.0248 nM

Reference: paper PMC8924000 (2022)
